Target: T1, HLA-A*02 (Homo sapiens, UniProt P04439, D140Y/D185E/D98H/E176V/E277Q/G131W/G231S/I119V/I121R/I166T/I218V/L300P/N151K/N90K/P208A/P217A/Q86G/Q94H/R138H/R169H)
T1 construct: made in house
Assay: MHC binding assay, UV-ligand exchange with beta2m ELISA (peptide exchange yield)
Conditions: binding to HLA-A*02
Text: Candidate peptides for T cell based therapies according to the present invention were further tested for their MHC binding capacity (affinity). The individual peptide-MHC complexes were produced by UV-ligand exchange, where a UV-sensitive peptide is cleaved upon UV-irradiation, and exchanged with the peptide of interest as analyzed. Only peptide candidates that can effectively bind and stabilize the peptide-receptive MHC molecules prevent dissociation of the MHC complexes. To determine the yield of the exchange reaction, an ELISA was performed based on the detection of the light chain (β2m) of stabilized MHC complexes. The assay was performed as generally described in Rodenko et al. (Rodenko et al., 2006).
96 well MAXISorp plates (NUNC) were coated over night with 2 ug/ml streptavidin in PBS at room temperature, washed 4× and blocked for 1h at 37° C. in 2% BSA containing blocking buffer. Refolded HLA-A*02:01/MLA-001 monomers served as standards, covering the range of 15-500 ng/ml. Peptide-MHC monomers of the UV-exchange reaction were diluted 100 fold in blocking buffer. Samples were incubated for 1h at 37° C., washed four times, incubated with 2 ug/ml HRP conjugated anti-32m for 1h at 37° C., washed again and detected with TMB solution that is stopped with […]. Absorption was measured at 450 nm. Candidate peptides that show a high exchange yield (preferably higher than 50%, most preferred higher than 75%) are generally preferred for a generation and production of antibodies or fragments thereof, and/or T cell receptors or fragments thereof, as they show sufficient avidity to the MHC molecules and prevent dissociation of the MHC complexes.

Peptide exchange (MHC class I binding score, peptide exchange yield) | Substance
++++ (> = 75% = ++++) | 3 (KLEENGDLYL; listed as Homo sapiens) [compound 3]
+++ (50%-75% = +++) | 9 (FLVDGSYSI; listed as Homo sapiens) [compound 9]
++ (20%-49% = ++) | 13 (ALMAMLVYV; listed as Homo sapiens) [compound 13]
+++ (50%-75% = +++) | 15 (YLDLSHNQL; listed as Homo sapiens) [compound 15]
+++ (50%-75% = +++) | 19 (SISDNVWEV; listed as Homo sapiens) [compound 19]
+++ (50%-75% = +++) | 21 (AIQDEIRSV; listed as Homo sapiens) [compound 21]
++ (20%-49% = ++) | 22 (FVDPNTQEKV; listed as Homo sapiens) [compound 22]
+++ (50%-75% = +++) | 28 (SLPNGKPVSV; listed as Homo sapiens) [compound 28]
++ (20%-49% = ++) | 30 (AMIEEVFEA; listed as Homo sapiens) [compound 30]
+++ (50%-75% = +++) | 33 (YIKTELISV; listed as Homo sapiens) [compound 33]
+++ (50%-75% = +++) | 37 (ILAPFSVDL; listed as Homo sapiens) [compound 37]
+++ (50%-75% = +++) | 38 (FLGPRIIGL; listed as Homo sapiens) [compound 38]
+++ (50%-75% = +++) | 39 (HLLEGSVGV; listed as Homo sapiens) [compound 39]
++ (20%-49% = ++) | 41 (ALFENTPKA; listed as Homo sapiens) [compound 41]
+ (<20% = +) | 42 (LLDSVSRL; listed as Homo sapiens) [compound 42]
++ (20%-49% = ++) | 46 (SQFPLPLAV; listed as Homo sapiens) [compound 46]
+++ (50%-75% = +++) | 49 (ALNIATHVL; listed as Homo sapiens) [compound 49]
+++ (50%-75% = +++) | 56 (FLHDEKEGIYI; listed as Homo sapiens) [compound 56]

Peptide exchange (MHC class I binding score, peptide exchange yield) | Substance
+++ (50%-75% = +++) | 59 (KLLDPQEFTL; listed as Homo sapiens) [compound 59]
+++ (50%-75% = +++) | 60 (ALFAPLVHL; listed as Homo sapiens) [compound 60]
++ (20%-49% = ++) | 61 (AIVKEIVNI; listed as Homo sapiens) [compound 61]
++ (20%-49% = ++) | 62 (ALNPELVQA; listed as Homo sapiens) [compound 62]
++ (20%-49% = ++) | 63 (SQIPAQPSV; listed as Homo sapiens) [compound 63]
++ (20%-49% = ++) | 64 (SLFPDSLIV; listed as Homo sapiens) [compound 64]
++ (20%-49% = ++) | 65 (SVVPDVRSV; listed as Homo sapiens) [compound 65]
+++ (50%-75% = +++) | 69 (FLAVGLVDV; listed as Homo sapiens) [compound 69]
+++ (50%-75% = +++) | 72 (FLTAINYLL; listed as Homo sapiens) [compound 72]
++ (20%-49% = ++) | 73 (YTLREVDTV; listed as Homo sapiens) [compound 73]
+++ (50%-75% = +++) | 75 (AVIKFLELL; listed as Homo sapiens) [compound 75]
++ (20%-49% = ++) | 76 (AVGPVHNSV; listed as Homo sapiens) [compound 76]
+++ (50%-75% = +++) | 77 (TLIDEQDIPLV; listed as Homo sapiens) [compound 77]
++ (20%-49% = ++) | 80 (KLYEADFVL; listed as Homo sapiens) [compound 80]
+++ (50%-75% = +++) | 81 (NALDKVLSV; listed as Homo sapiens) [compound 81]
+ (<20% = +) | 82 (FIFDEAEKL; listed as Homo sapiens) [compound 82]
++ (20%-49% = ++) | 83 (GQASYFYVA; listed as Homo sapiens) [compound 83]

Further lines, the substance ahead of its results:

Substance | Peptide exchange (MHC class I binding score, peptide exchange yield)
10 (GIAGSLKTV; listed as Homo sapiens) [compound 10] | +++ (50%-75% = +++)
16 (YTLDIPVLFGV; listed as Homo sapiens) [compound 16] | ++++ (> = 75% = ++++)
24 (TLDEKVAEL; listed as Homo sapiens) [compound 24] | +++ (50%-75% = +++)
25 (TMDSVLVTV; listed as Homo sapiens) [compound 25] | +++ (50%-75% = +++)
32 (VQLDSIEDLEV; listed as Homo sapiens) [compound 32] | +++ (50%-75% = +++)
34 (FLLATEVVTV; listed as Homo sapiens) [compound 34] | ++++ (> = 75% = ++++)
36 (SLADTNSLAVV; listed as Homo sapiens) [compound 36] | +++ (50%-75% = +++)
40 (VLIDPQWVLTA; listed as Homo sapiens) [compound 40] | +++ (50%-75% = +++)
44 (SLFETAWEA; listed as Homo sapiens) [compound 44] | +++ (50%-75% = +++)
45 (SLTEVSLPL; listed as Homo sapiens) [compound 45] | +++ (50%-75% = +++)
47 (ALLERGELFV; listed as Homo sapiens) [compound 47] | +++ (50%-75% = +++)
48 (QVIEDSTGV; listed as Homo sapiens) [compound 48] | ++ (20%-49% = ++)
50 (ILFHGVFYA; listed as Homo sapiens) [compound 50] | +++ (50%-75% = +++)
51 (LLFSRLCGA; listed as Homo sapiens) [compound 51] | ++++ (> = 75% = ++++)
53 (KMVGLVVAI; listed as Homo sapiens) [compound 53] | +++ (50%-75% = +++)
54 (VLNPLITAV; listed as Homo sapiens) [compound 54] | +++ (50%-75% = +++)
55 (SLATKIVEA; listed as Homo sapiens) [compound 55] | +++ (50%-75% = +++)
57 (TVFTDHMLTV; listed as Homo sapiens) [compound 57] | ++ (20%-49% = ++)
58 (YLLPLLPAL; listed as Homo sapiens) [compound 58] | +++ (50%-75% = +++)
66 (KLIFSVEAV; listed as Homo sapiens) [compound 66] | +++ (50%-75% = +++)
67 (TLLQRLTEV; listed as Homo sapiens) [compound 67] | +++ (50%-75% = +++)
68 (SLSNRLYYL; listed as Homo sapiens) [compound 68] | +++ (50%-75% = +++)
70 (LLLGDSALYL; listed as Homo sapiens) [compound 70] | +++ (50%-75% = +++)
71 (VLHSKFWVV; listed as Homo sapiens) [compound 71] | +++ (50%-75% = +++)
74 (TLFGYSVVL; listed as Homo sapiens) [compound 74] | +++ (50%-75% = +++)
78 (TVVTRLDEI; listed as Homo sapiens) [compound 78] | ++ (20%-49% = ++)
79 (VTFKEYVTV; listed as Homo sapiens) [compound 79] | ++ (20%-49% = ++)

Source: patent publication US10143730B2, “Peptides and combination of peptides for use in immunotherapy against various cancers” (immatics biotechnologies GmbH, priority 2015, dated 2018)
